From US20180002431A1, “FAS AND DRs ARE NOVEL MOLECULAR TARGETS OF SENESCENT CELLS” (BioVentures, LLC, priority 2015, published 2018)

Legend:
[1] = test system: senescent WI-38 cells induced by IR (IR-SC); experiment: Viable cell count, senescent WI-38 cells induced by IR; assay type: cell-based, human
Protocol: (§1) FIG. 2A, FIG. 2B, FIG. 2C, FIG. 2D, FIG. 2E, FIG. 2F, FIG. 2G, FIG. 2H, FIG. 2I, FIG. 2J, FIG. 2K, FIG. 2L, FIG. 2M and FIG. 2N depict graphs showing that FasAb and Trail selectively kill senescent cells by induction of apoptosis. (FIG. 2A, FIG. 2B, FIG. 2C, FIG. 2D) Non-senescent cells (NC) and senescent WI-38 cells induced by IR (IR-SC) were incubated with different concentrations of FasAb (Clone CH11, Cat #05-201, Millipore, Mass., USA) or Trail (Cat #310-04, Peprotech, N.J., USA) for 3 days to count number of viable cells. The data presented are means±SD of viable cells as a percent of control without FasAb or Trail treatment from 3 independent experiments. **, p<0.01; ***, p<0.001; and ****, p<0.0001, vs. without FasAb or Trail. (FIG. 2E, FIG. 2F) WI-38 NC and IR-SC were incubated with vehicle (Veh), FasAb (10 ng/ml) or Trail (12.5 ng/ml) for 3 days, and apoptosis in these cells was determined by Annexin V-FITC staining and flow cytometry. […] (FIG. 2G, FIG. 2H) NCs and IR-SCs were incubated with vehicle (Veh), FasAb (10 ng/ml) or Trail (12.5 ng/ml) for 3 days after the cells were preincubated with vehicle (Veh) or 10 μM Q-VD-OPh hydrate (QVD) for 2 hours, and apoptosis in these cells was determined by Annexin V-FITC staining and flow cytometry. […]

[2] = test system: senescent WI-38 cells induced by IR (IR-SC); experiment: Apoptosis by Annexin V-FITC staining and flow cytometry, WI-38 IR-SC; assay type: cell-based, human
Protocol: as §1, with “The data presented are means±SD of viable cells as a percent of control without FasAb or Trail treatment from 3 independent experiments. **, p<0.01; ***, p<0.001; and ****, p<0.0001, vs. without FasAb or Trail.” left out
WI-38 NC and IR-SC were incubated with vehicle (Veh), FasAb (10 ng/ml) or TRAIL (12.5 ng/ml) for 3 days, and apoptosis in these cells was determined by Annexin V-FITC staining and flow cytometry. […]

[3] = test system: senescent IMR90 cells induced by IR (IR-SC); experiment: Viable cell count, senescent IMR90 cells induced by IR; assay type: cell-based; settings: different concentrations, 3 days (FIG. 2K-2N)

CC(C)[C@H](NC(=O)c1ccc2ccccc2n1)C(=O)N[C@@H](CC(=O)O)C(=O)COc1c(F)cccc1F [QVD, Q-VD-OPh hydrate, reference compound]
effect of QVD on the viable cell reduction by FasAb and TRAIL ([1]; IR-SC, 10 μM QVD preincubated 2 hours, then FasAb 10 ng/ml or TRAIL 12.5 ng/ml for 3 days (FIG. 2I, 2J)): blocks the activity observed with FasAb and TRAIL
effect of QVD on apoptosis induced by FasAb and TRAIL ([2]; 10 μM QVD preincubated 2 hours, then FasAb 10 ng/ml or TRAIL 12.5 ng/ml for 3 days (FIG. 2G, 2H)): blocked the ability of FasAb and TRAIL to induce apoptosis

B1: TRAIL: recombinant TNF-related apoptosis-inducing ligand, Cat #310-04, Peprotech (protein, UniProt P50591 1-281, looked up)
Tumor necrosis factor ligand …: MAMMEVQGGPSLGQTCVLIVIFTVLLQSLCVAVTYVYFTNELKQMQDKYSKSGIACFLKEDDSYWDPNDEESMNSPCWQVKWQLRQLVRKMILRTSEETISTVQEKQQNISPLVRERGPQRVAAHITGTRGRSNTLSSPNSKNEKALGRKINSWESSRSGHSFLSNLHLRNGELVIHEKGFYYIYSQTYFRFQEEIKENTKNDKQMVQYIYKYTSYPDPILLMKSARNSCWSKDAEYGLYSIYQGGIFELKENDRIFVSVTNEHLIDMDHEASFFGAFLVG
number of viable cells (reported as apoptosis induction) [3]: induced apoptosis
number of viable cells ([1]; WI-38 IR-SC vs NC, different concentrations, 3 days (FIG. 2A-2D)): significantly reduced the number of viable cells relative to NC
apoptosis (Annexin V-FITC+ cells) ([2]; WI-38 IR-SC, FasAb 10 ng/ml or TRAIL 12.5 ng/ml, 3 days, relative to untreated or non-senescent cells (FIG. 2E, 2F)): significantly increased
